In publication PMC12374970, “NSUN2 facilitates DICER cleavage of DNA damage-associated R-loops to promote repair” (Nature Communications, 2025) one finds Kd data, which are given here for 1 molecule.

For the experiment, the target named is T1, 6xHis-DICER (recombinant wild-type DICER) (human, UniProt Q9UPY3 1-1922).
T1 construct: DICER (endoribonuclease Dicer), human; expressed from pFastBac1-hDICER; See Addgene 89144 and the plasmid list in Supplementary Data 1; also called hDICER; recombinant DICER; source: Sf9 (baculovirus, pFastBac1-hDICER), purified (Ni-NTA)
Nature of the experiment: SPR; Biacore S200; 6xHis-NSUN2 (0.2 μg/mL) immobilised on CM5 chip at pH 4.0 by amine coupling; 2-fold serial dilutions of 6xHis-DICER (0.00117–0.6 µM) in 50 mM TrisHCl (pH 8), 50 mM NaCl, 5 mM MgCl2, 2 mM TCEP, 0.05% Tween20; equilibrium (steady-state) fit. The note with it: both partners purified. (Surface plasmon resonance follows binding to a sensor surface in real time, without labels.)

T1 sequence (Q9UPY3 whole entry): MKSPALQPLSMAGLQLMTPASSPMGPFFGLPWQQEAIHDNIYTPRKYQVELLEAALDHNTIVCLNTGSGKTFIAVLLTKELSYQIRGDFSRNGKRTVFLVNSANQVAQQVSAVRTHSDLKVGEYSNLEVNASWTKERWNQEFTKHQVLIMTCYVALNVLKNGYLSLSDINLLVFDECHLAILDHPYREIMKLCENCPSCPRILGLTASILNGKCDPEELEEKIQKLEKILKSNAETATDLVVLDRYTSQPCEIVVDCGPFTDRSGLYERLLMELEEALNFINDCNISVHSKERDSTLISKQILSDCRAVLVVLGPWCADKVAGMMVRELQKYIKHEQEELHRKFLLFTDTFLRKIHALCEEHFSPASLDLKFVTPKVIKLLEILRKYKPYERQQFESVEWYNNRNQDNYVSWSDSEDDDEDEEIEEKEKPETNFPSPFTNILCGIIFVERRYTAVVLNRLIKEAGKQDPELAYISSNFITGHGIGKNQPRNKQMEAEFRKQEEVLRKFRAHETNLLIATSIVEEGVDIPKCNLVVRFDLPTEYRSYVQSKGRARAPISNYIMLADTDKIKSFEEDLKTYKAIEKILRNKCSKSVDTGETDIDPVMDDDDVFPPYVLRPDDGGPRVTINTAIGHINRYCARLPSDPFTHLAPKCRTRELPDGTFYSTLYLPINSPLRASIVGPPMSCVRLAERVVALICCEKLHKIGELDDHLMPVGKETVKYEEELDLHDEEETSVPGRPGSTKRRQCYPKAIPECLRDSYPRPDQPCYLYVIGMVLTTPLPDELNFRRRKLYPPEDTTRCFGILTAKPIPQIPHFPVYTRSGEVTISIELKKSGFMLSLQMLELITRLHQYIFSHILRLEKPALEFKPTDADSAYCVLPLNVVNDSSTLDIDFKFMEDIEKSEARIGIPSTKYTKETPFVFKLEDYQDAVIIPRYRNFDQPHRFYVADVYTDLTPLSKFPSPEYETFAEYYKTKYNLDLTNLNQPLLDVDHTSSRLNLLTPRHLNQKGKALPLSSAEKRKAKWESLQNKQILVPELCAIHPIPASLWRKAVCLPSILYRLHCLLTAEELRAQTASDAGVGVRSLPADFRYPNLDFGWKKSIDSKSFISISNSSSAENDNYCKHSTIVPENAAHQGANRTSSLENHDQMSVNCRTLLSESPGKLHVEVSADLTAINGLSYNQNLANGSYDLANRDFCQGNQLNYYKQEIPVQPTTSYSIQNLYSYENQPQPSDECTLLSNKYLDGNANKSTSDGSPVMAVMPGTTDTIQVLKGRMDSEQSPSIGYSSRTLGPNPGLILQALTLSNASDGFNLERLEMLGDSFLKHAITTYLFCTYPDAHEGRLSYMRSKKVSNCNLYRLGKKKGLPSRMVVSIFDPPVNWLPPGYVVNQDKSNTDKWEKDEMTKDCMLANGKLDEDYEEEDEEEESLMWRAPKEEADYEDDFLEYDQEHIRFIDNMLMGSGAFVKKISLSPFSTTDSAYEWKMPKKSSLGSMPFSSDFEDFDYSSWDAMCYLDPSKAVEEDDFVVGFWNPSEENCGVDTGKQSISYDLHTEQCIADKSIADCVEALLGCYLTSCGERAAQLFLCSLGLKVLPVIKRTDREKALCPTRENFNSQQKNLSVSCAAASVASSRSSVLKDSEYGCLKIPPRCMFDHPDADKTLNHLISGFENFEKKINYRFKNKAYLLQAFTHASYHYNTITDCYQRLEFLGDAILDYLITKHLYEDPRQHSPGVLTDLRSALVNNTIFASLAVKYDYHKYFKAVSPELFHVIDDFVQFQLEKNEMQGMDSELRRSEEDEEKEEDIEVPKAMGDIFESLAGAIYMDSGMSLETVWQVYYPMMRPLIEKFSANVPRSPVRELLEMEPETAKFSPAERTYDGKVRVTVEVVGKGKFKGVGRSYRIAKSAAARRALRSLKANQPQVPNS

B1: 6xHis-NSUN2 (recombinant wild-type NSUN2) (enzyme, human, UniProt Q08J23 1-767, looked up)
chain: MGRRSRGRRLQQQQRPEDAEDGAEGGGKRGEAGWEGGYPEIVKENKLFEHYYQELKIVPEGEWGQFMDALREPLPATLRITGYKSHAKEILHCLKNKYFKELEDLEVDGQKVEVPQPLSWYPEELAWHTNLSRKILRKSPHLEKFHQFLVSETESGNISRQEAVSMIPPLLLNVRPHHKILDMCAAPGSKTTQLIEMLHADMNVPFPEGFVIANDVDNKRCYLLVHQAKRLSSPCIMVVNHDASSIPRLQIDVDGRKEILFYDRILCDVPCSGDGTMRKNIDVWKKWTTLNSLQLHGLQLRIATRGAEQLAEGGRMVYSTCSLNPIEDEAVIASLLEKSEGALELADVSNELPGLKWMPGITQWKVMTKDGQWFTDWDAVPHSRHTQIRPTMFPPKDPEKLQAMHLERCLRILPHHQNTGGFFVAVLVKKSSMPWNKRQPKLQGKSAETRESTQLSPADLTEGKPTDPSKLESPSFTGTGDTEIAHATEDLENNGSKKDGVCGPPPSKKMKLFGFKEDPFVFIPEDDPLFPPIEKFYALDPSFPRMNLLTRTTEGKKRQLYMVSKELRNVLLNNSEKMKVINTGIKVWCRNNSGEEFDCAFRLAQEGIYTLYPFINSRIITVSMEDVKILLTQENPFFRKLSSETYSQAKDLAKGSIVLKYEPDSANPDALQCPIVLCGWRGKASIRTFVPKNERLHYLRMMGLEVLGEKKKEGVILTNESAASTGQPDNDVTEGQRAGEPNSPDAEEANSPDVTAGCDPAGVHPPR
notes: RNA m5C-methyltransferase NSUN2, human; The plasmid list is in Supplementary Data 1; also called NSUN2 wt; recombinant NSUN2; source: Sf9 (baculovirus, pFastBac1-NSUN2), purified (Ni-NTA)
The Kd is a measure of binding affinity in units of concentration. For B1, the Kd is roughly 500 nM.
